Measured values from the supplement of paper PMC6757056.
± gives the standard deviation of the averaged measurements.

B1: library; a variant is named by its letters at N, in order (parent)
chain: GCUGUCACCGGUGUAUUACCCUAGUGGUCGACCGGUCUGAUGAGUCUNNNNNNAGACGAAACAGC

Legend:
hypoxanthine [1] = variants of: B1; experiment: FACS-Seq fitted mean relative fluorescence mCherry/BFP without ligand (log10 relative fluorescence); ligand: hypoxanthine (xanthine aptamer); higher = higher reporter protein expression; conditions: HEK293T, ligand present: no
Summary of the method: (§1)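 Fluorescence values are fitted normal means of bin counts along the mCherry/BFP axis. HEK293T libraries lentivirally carrying the ribozyme switch in an mCherry reporter, with an EF1α-BFP marker, were enriched, exposed to ligand or not for 48 h, and sorted into 6 bins. Genomic DNA per bin was PCR-amplified, barcoded and run on MiSeq. Means of log10(mCherry/BFP) were scaled to five spiked-in control ribozymes.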

hypoxanthine [2] = variants of: B1; experiment: normalized RNA/DNA level with ligand (relative to sTRSVctl = 100) (log10 (% of sTRSVctl)); ligand: hypoxanthine (xanthine aptamer); higher = less ribozyme self-cleavage, higher mRNA level; conditions: ligand concentration (+) RNA-Seq: 5 mM, HEK293T, reporter: mCherry (pCS4076), ligand present: yes
Summary of the method: (§2)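 Ribozyme switch library plasmids linked to reporters were introduced into HEK293T cells at 4 µg per 6-well well, with ligand, if any, added 1 h before. Total RNA was extracted with EDTA 72 h later, reverse-transcribed, amplified, barcoded and sequenced. RNA level was computed from RNA over DNA reads relative to a spiked-in non-cleaving sequence or the top sequences, then scaled and log-transformed. The top set was 25 sequences, values were ×100 and log10, and the cutoff was ≥100 DNA reads.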

hypoxanthine [3] = variants of: B1; experiment: normalized RNA/DNA level without ligand (relative to sTRSVctl = 100) (log10 (% of sTRSVctl)); ligand: hypoxanthine (xanthine aptamer); higher = less ribozyme self-cleavage, higher mRNA level; conditions: HEK293T, reporter: mCherry (pCS4076), ligand present: no
Summary of the method: as §2

hypoxanthine [4] = variants of: B1; experiment: FACS-Seq fitted mean relative fluorescence mCherry/BFP with ligand (log10 relative fluorescence); ligand: hypoxanthine (xanthine aptamer); ligand concentration (+) FACS-Seq: 5 mM; higher = higher reporter protein expression; conditions: HEK293T, ligand present: yes
Summary of the method: as §1

In the case of UGAGAU, the “FACS-Seq fitted mean (log10)” value (hypoxanthine [1]) is reported as 0.648 ± 0.051, the “normalized RNA/DNA level with ligand (log10)” value (hypoxanthine [2]) is reported as 1.887 ± 0.017 and the “normalized RNA/DNA level without ligand (log10)” value (hypoxanthine [3]) is reported as 1.713 ± 0.0063. For the same variant, the “FACS-Seq fitted mean (log10)” value (hypoxanthine [4]) was 0.743 ± 0.033.

For GUGUGA, the “FACS-Seq fitted mean (log10)” value (hypoxanthine [1]) was 0.33 ± 0.037, the “normalized RNA/DNA level with ligand (log10)” value (hypoxanthine [2]) was 1.905 ± 0.0085 and the “normalized RNA/DNA level without ligand (log10)” value (hypoxanthine [3]) was 1.58 ± 0.026. For the same variant, the “FACS-Seq fitted mean (log10)” value (hypoxanthine [4]) was 0.67 ± 0.024.

For GUGUGU, the “FACS-Seq fitted mean (log10)” value (hypoxanthine [1]) was 0.3521 ± 0.0033, the “normalized RNA/DNA level with ligand (log10)” value (hypoxanthine [2]) was 1.894 ± 0.0042 and the “normalized RNA/DNA level without ligand (log10)” value (hypoxanthine [3]) was 1.64 ± 0.023. For the same variant, the “FACS-Seq fitted mean (log10)” value (hypoxanthine [4]) was 0.466 ± 0.13.

With CUUCAC the “FACS-Seq fitted mean (log10)” value (hypoxanthine [1]) was 0.798 ± 0.0035, the “normalized RNA/DNA level with ligand (log10)” value (hypoxanthine [2]) was 1.98 ± 0.022 and the “normalized RNA/DNA level without ligand (log10)” value (hypoxanthine [3]) was 1.89 ± 0.038. The “FACS-Seq fitted mean (log10)” value (hypoxanthine [4]) was 0.7261 ± 0.0054.

GAAGGG was tested, and the “FACS-Seq fitted mean (log10)” value (hypoxanthine [1]) was -0.0424 ± 0.023, the “normalized RNA/DNA level with ligand (log10)” value (hypoxanthine [2]) was 1.806 ± 0.01 and the “normalized RNA/DNA level without ligand (log10)” value (hypoxanthine [3]) was 1.324 ± 0.0061. The “FACS-Seq fitted mean (log10)” value (hypoxanthine [4]) was 0.431 ± 0.059.

In the case of GACAGA, the “FACS-Seq fitted mean (log10)” value (hypoxanthine [1]) is reported as 0.4408 ± 0.00062, the “normalized RNA/DNA level with ligand (log10)” value (hypoxanthine [2]) is reported as 1.91 ± 0.038 and the “normalized RNA/DNA level without ligand (log10)” value (hypoxanthine [3]) is reported as 1.65 ± 0.035. The “FACS-Seq fitted mean (log10)” value (hypoxanthine [4]) was 0.594 ± 0.088.

For CGAGUU, the “FACS-Seq fitted mean (log10)” value (hypoxanthine [1]) was 0.866 ± 0.02, the “normalized RNA/DNA level with ligand (log10)” value (hypoxanthine [2]) was 2 ± 0.039 and the “normalized RNA/DNA level without ligand (log10)” value (hypoxanthine [3]) was 1.834 ± 0.015. For the same variant, the “FACS-Seq fitted mean (log10)” value (hypoxanthine [4]) was 0.833 ± 0.11.

AGGUUG was tested, and the “FACS-Seq fitted mean (log10)” value (hypoxanthine [1]) was 0.0275 ± 0.013, the “normalized RNA/DNA level with ligand (log10)” value (hypoxanthine [2]) was 1.88 ± 0.021 and the “normalized RNA/DNA level without ligand (log10)” value (hypoxanthine [3]) was 1.48 ± 0.042. For the same variant, the “FACS-Seq fitted mean (log10)” value (hypoxanthine [4]) was 0.557 ± 0.036.

With ACUAGG the “FACS-Seq fitted mean (log10)” value (hypoxanthine [1]) was 0.706 ± 0.049, the “normalized RNA/DNA level with ligand (log10)” value (hypoxanthine [2]) was 1.8318 ± 0.00012 and the “normalized RNA/DNA level without ligand (log10)” value (hypoxanthine [3]) was 1.424 ± 0.009. The “FACS-Seq fitted mean (log10)” value (hypoxanthine [4]) was 0.657 ± 0.03.

In the case of CAUUAU, the “FACS-Seq fitted mean (log10)” value (hypoxanthine [1]) is reported as 0.7325 ± 0.0015, the “normalized RNA/DNA level with ligand (log10)” value (hypoxanthine [2]) is reported as 1.9 ± 0.08 and the “normalized RNA/DNA level without ligand (log10)” value (hypoxanthine [3]) is reported as 1.8 ± 0.021. The “FACS-Seq fitted mean (log10)” value (hypoxanthine [4]) was 0.778 ± 0.098.

With AAUAGC the “FACS-Seq fitted mean (log10)” value (hypoxanthine [1]) was 0.38 ± 0.038, the “normalized RNA/DNA level with ligand (log10)” value (hypoxanthine [2]) was 1.924 ± 0.0031 and the “normalized RNA/DNA level without ligand (log10)” value (hypoxanthine [3]) was 1.734 ± 0.0066. For the same variant, the “FACS-Seq fitted mean (log10)” value (hypoxanthine [4]) was 0.681 ± 0.17.

For AGAAGG, the “FACS-Seq fitted mean (log10)” value (hypoxanthine [1]) was 0.227 ± 0.0085, the “normalized RNA/DNA level with ligand (log10)” value (hypoxanthine [2]) was 1.85 ± 0.051 and the “normalized RNA/DNA level without ligand (log10)” value (hypoxanthine [3]) was 1.42 ± 0.044. For the same variant, the “FACS-Seq fitted mean (log10)” value (hypoxanthine [4]) was 0.463 ± 0.011.

With GGAUAG the “FACS-Seq fitted mean (log10)” value (hypoxanthine [1]) was 0.188 ± 0.013, the “normalized RNA/DNA level with ligand (log10)” value (hypoxanthine [2]) was 1.83 ± 0.028 and the “normalized RNA/DNA level without ligand (log10)” value (hypoxanthine [3]) was 1.39 ± 0.049. The “FACS-Seq fitted mean (log10)” value (hypoxanthine [4]) was 0.508 ± 0.041.

For GAUAUG, the “FACS-Seq fitted mean (log10)” value (hypoxanthine [1]) was 0.0367 ± 0.045, the “normalized RNA/DNA level with ligand (log10)” value (hypoxanthine [2]) was 1.85 ± 0.029 and the “normalized RNA/DNA level without ligand (log10)” value (hypoxanthine [3]) was 1.39 ± 0.017. For the same variant, the “FACS-Seq fitted mean (log10)” value (hypoxanthine [4]) was 0.215 ± 0.097.

CUAGAA was tested, and the “FACS-Seq fitted mean (log10)” value (hypoxanthine [1]) was 0.259 ± 0.2, the “normalized RNA/DNA level with ligand (log10)” value (hypoxanthine [2]) was 1.92 ± 0.032 and the “normalized RNA/DNA level without ligand (log10)” value (hypoxanthine [3]) was 1.79 ± 0.042. The “FACS-Seq fitted mean (log10)” value (hypoxanthine [4]) was 0.359 ± 0.059.

In the case of GAGUGC, the “FACS-Seq fitted mean (log10)” value (hypoxanthine [1]) is reported as 0.0552 ± 0.013, the “normalized RNA/DNA level with ligand (log10)” value (hypoxanthine [2]) is reported as 1.876 ± 0.005 and the “normalized RNA/DNA level without ligand (log10)” value (hypoxanthine [3]) is reported as 1.501 ± 0.013. For the same variant, the “FACS-Seq fitted mean (log10)” value (hypoxanthine [4]) was 0.361 ± 0.045.

In the case of GAGUGA, the “FACS-Seq fitted mean (log10)” value (hypoxanthine [1]) is reported as 0.22 ± 0.019, the “normalized RNA/DNA level with ligand (log10)” value (hypoxanthine [2]) is reported as 1.87 ± 0.066 and the “normalized RNA/DNA level without ligand (log10)” value (hypoxanthine [3]) is reported as 1.453 ± 0.012. For the same variant, the “FACS-Seq fitted mean (log10)” value (hypoxanthine [4]) was 0.468 ± 0.065.

With GAAACC the “FACS-Seq fitted mean (log10)” value (hypoxanthine [1]) was 0.401 ± 0.023, the “normalized RNA/DNA level with ligand (log10)” value (hypoxanthine [2]) was 1.897 ± 0.011 and the “normalized RNA/DNA level without ligand (log10)” value (hypoxanthine [3]) was 1.85 ± 0.022. The “FACS-Seq fitted mean (log10)” value (hypoxanthine [4]) was 0.469 ± 0.033.
